FireProtDB (doi:10.1002/pro.5560041213)

B1: High-potential iron-sulfur protein isozyme 1, P04168 (parent)
chain: EPRAEDGHAHDYVNEAADASGHPRYQEGQLCENCAFWGEAVQDGWGRCTHPDFDEVLVKAEGWCSVYAPAS

Variants of: B1
Details: Halorhodospira halophila, Thermal, DSC, reversible: yes, structure 2HIP, whole UniProt chain shown

| Variant | Tm (pH 7, MOPS 20 mM) [°C] | Tm (pH 9, TAPS 20 mM) [°C] | Tm (pH 10, CAPS 20 mM) [°C] | Tm (pH 10.8, CHES 20 mM) [°C] |
| --- | --- | --- | --- | --- |
| EPRAEDGHAHDHVNEAADASGHPRYQEGQLCENCAFWGEAVQDGWGRCTHPDFDEVLVKAEGWCSVYAPAS [Y12H] | 42.2 | 39 |  |  |
| EPRAEDGHAHDWVNEAADASGHPRYQEGQLCENCAFWGEAVQDGWGRCTHPDFDEVLVKAEGWCSVYAPAS [Y12W] | 37.4 |  |  |  |
| EPRAEDGHAHDFVNEAADASGHPRYQEGQLCENCAFWGEAVQDGWGRCTHPDFDEVLVKAEGWCSVYAPAS [Y12F] |  | 54.4 | 54.2 | 37.1 |
